The target in this assay is T1, MBP-AF9 (MBP carrier left out. The construct limits are not given; the C-terminal ANC1 homology domain (AHD), named as the DOT1L-binding domain, is taken by convention as about 500-568.).
T1 chain: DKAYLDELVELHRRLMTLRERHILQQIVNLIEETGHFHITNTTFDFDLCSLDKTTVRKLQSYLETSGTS
Nature of the assay: fluorescence polarisation; competitive: serial dilutions of peptide with fixed MBP-AF9 (200 nM) and N-Flu-DOT1L (10 nM); 100 mM NaH2PO4, 150 mM NaCl, 0.1% β-ME, 0.01% Triton X-100; room temperature, 3 h. As to conditions: both partners purified.

In general, Ki refers to a dissociation constant, usually derived from enzyme kinetics or from competition with a known ligand. Lower therefore signals tighter binding.

B1: DOT1L WT 10mer (865–874) peptide (peptide, UniProt Q8TEK3 865-874, looked up)
peptide: LPISIPLSTV
notes: the DOT1L constructs of the cell lines are human; also called 10mer peptide from residues 865–874; 10mer DOT1L peptide; source: synthetic peptide
In the case of B1, the Ki was determined as 0.02 µM.

Source of the values: article PMC7914713, “Elucidating the Importance of DOT1L Recruitment in MLL-AF9 Leukemia and Hematopoiesis” (Cancers, 2021).
